Results on two compounds are retold here after paper PMC9091730 (Journal of Advanced Research, 2021).

Like-named read-outs stand apart in the source and are kept apart here. Where only a bound is given, the exact number is not on record here.

In test [1] the target is L-type voltage-gated Ca2+ channel (TcL-VGCC) (Tetranychus cinnabarinus, UniProt A0A3Q9D0J7). Kind of test: voltage-clamp whole-cell current recording in Xenopus oocytes. The test is classed as cell-based.
For test [2], the target named is GST-fusion peptide of the wild-type IQ motif of T. cinnabarinus L-VGCC (Tetranychus cinnabarinus). Kind of test: pull-down.
In test [3] the target is GST-fusion peptide of the PreIQ motif of T. cinnabarinus L-VGCC (Tetranychus cinnabarinus). Kind of test: pull-down.
Test [4] deals with GST-fusion peptide CT1B (PreIQ and IQ) of T. cinnabarinus L-VGCC (Tetranychus cinnabarinus). Nature of the test: pull-down.
For test [5], the target named is GST-fusion peptide of the wild-type IQ motif of T. cinnabarinus L-VGCC (Tetranychus cinnabarinus). Kind of test: pull-down. This is another data set of the same source.
Test [6] concerns the target GST-fusion peptide of the near-end C-terminal motif (CT1) of T. cinnabarinus L-VGCC (Tetranychus cinnabarinus). Kind of test: pull-down.
Test [7] has as its target GST-fusion peptide of the N-terminal (NT) motif of T. cinnabarinus L-type voltage-gated Ca2+ channel (Tetranychus cinnabarinus). Kind of test: pull-down.

As to `COc1cc2ccc(=O)oc2cc1OC` [compound 1, scoparone], the EC50 in test [1] is 5.54 µM.
For “Tetranychus cinnabarinus calmodulin 1 (TcCaM1), recombinant, purified (natural protein)”, the Kd came out at 230 nM in test [2]; 85 nM in test [3]; 430 nM in test [5]; 931 nM in test [6]; 112 nM in test [7]. Further, the stoichiometry N in test [4] and in test [6] was over 1 throughout. Moreover, the percent increase of CaM1 binding in the presence of scoparone (5.54 μM) in test [5] turned out to be 47.1%. In test [6], this compound yielded a Kd, two-site model, first printed value of 2.25 µM. In test [6], this compound registered a Kd, two-site model, second printed value of 0.024 µM.
